This note sets out measurements from PMC4729957, “The Atg1–kinase complex tethers Atg9-vesicles to initiate autophagy” (Nature Communications, 2016).

One may read the stoichiometry N as the number of molecules, sites or subunits per partner or assembly.

Sequences and labels used below:
T1: Atg9^core (Atg9^281–779), reconstituted in proteoliposomes (S. cerevisiae) (UniProt Q12142)
T1 sequence: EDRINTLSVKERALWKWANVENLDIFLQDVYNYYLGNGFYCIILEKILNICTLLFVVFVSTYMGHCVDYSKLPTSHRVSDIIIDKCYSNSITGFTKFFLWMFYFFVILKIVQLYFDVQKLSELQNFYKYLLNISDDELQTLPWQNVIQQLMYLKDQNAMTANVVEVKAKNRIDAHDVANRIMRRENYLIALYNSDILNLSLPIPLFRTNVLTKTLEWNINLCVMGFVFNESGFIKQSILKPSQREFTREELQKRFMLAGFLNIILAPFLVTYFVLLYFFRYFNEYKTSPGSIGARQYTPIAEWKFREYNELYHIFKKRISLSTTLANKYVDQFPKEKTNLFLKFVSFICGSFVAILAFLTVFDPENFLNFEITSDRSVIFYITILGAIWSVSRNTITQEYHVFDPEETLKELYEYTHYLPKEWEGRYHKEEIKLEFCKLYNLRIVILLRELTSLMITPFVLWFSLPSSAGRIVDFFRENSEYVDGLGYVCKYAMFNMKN

B1: Atg17–Atg31–Atg29 trimeric complex (Atg17^TC) (complex, S. cerevisiae)
chain 1: MNEADVTKFVNNARKTLTDAQLLCSSANLRIVDIKKKLSSWQLSISKLNFLIVGLRQQGKFLYTILKEGIGTKLIQKQWNQAVLVVLVDEMKYWQYEITSKVQRLDGIVNELSISEKDDTDPSKLGDYISRDNVNLLNDKLKEVPVIERQIENIKLQYENMVRKVNKELIDTKLTDVTQKFQSKFGIDNLMETNVAEQFSRELTDLEKDLAEIMNSLTQHFDKTLLLQDKKIDNDEREELFKVVQGDDKELYNIFKTLHEVIDDVDKTILNLGQFLQAKIKEKTELHSEVSEIINDFNRNLEYLLIFKDISNLIDSFKNSCTQDIQTTKELCEFYDNFEESYGNLVLEAKRRKDVANRMKTILKDCEKQLQNLDAQDQEERQNFIAENGTYLPETIWPGKIDDFSSLYTLNYNVKNP
chain 2: MNVTVTVYDKNVKYRLEENIKNNKGPSNDDQPAYNNESKSTDGSDYAMFPTNIKYIFEDNNDELVDSSDAALTAGIDKVGDELENVIIVQLDESGSLEDITLISDQYELLSHRTNSLSLEENQMRTLSSHGDDKSNDEEEELSVDSDRFRVDSDIELDVISQFCDLSPFLRDLSLNDLIKLYVTQNEQLQMLSNSV
chain 3: MIMNSTNTVVYIKVKGRRPQGFLDPPKFEWNGTKERQLWTMVSNLNYSQDQIDWQNLSKIFETPEFFLKKRTYKLFAEHLELLQLQLEKKRDLEKYSNDQVNEGMSDLIHKYTPTLQNDNLLNVSASPLTTERQDSEEVETEVTNEALQHLQTSKILNIHKKTSDSENKPNDKLDKDGINKEMECGSSDDDLSSSLSVSKSALEEALMDRLQF
notes: Atg17, S. cerevisiae BY4741; Atg31, S. cerevisiae BY4741; Atg29, S. cerevisiae BY4741; dimer of trimers through Atg17; also produced by combining Atg17 with co-expressed Atg31–Atg29; also called Atg17-Atg31–Atg29 complex; source: E. coli Rosetta, co-expressed from pST39, purified (Ni-NTA, SEC); not shown: His6, N-terminal, cleaved; copies: 2 + 2 + 2
B2: myc-tagged Atg17 (Atg17^myc), recombinant (natural protein, S. cerevisiae, UniProt Q06410 1-417, looked up)
chain: B1 chain 1
notes: Atg17, S. cerevisiae BY4741, open reading frame from genomic DNA; expressed from pST39 with a myc-tag at the C-terminus of Atg17; also called recombinant myc-tagged Atg17; source: E. coli Rosetta, purified; not shown: myc, C-terminal, kept
B3: Atg17^1–354-Atg31–Atg29 (Atg17^monoTC) (complex, S. cerevisiae)
chain 1: MNEADVTKFVNNARKTLTDAQLLCSSANLRIVDIKKKLSSWQLSISKLNFLIVGLRQQGKFLYTILKEGIGTKLIQKQWNQAVLVVLVDEMKYWQYEITSKVQRLDGIVNELSISEKDDTDPSKLGDYISRDNVNLLNDKLKEVPVIERQIENIKLQYENMVRKVNKELIDTKLTDVTQKFQSKFGIDNLMETNVAEQFSRELTDLEKDLAEIMNSLTQHFDKTLLLQDKKIDNDEREELFKVVQGDDKELYNIFKTLHEVIDDVDKTILNLGQFLQAKIKEKTELHSEVSEIINDFNRNLEYLLIFKDISNLIDSFKNSCTQDIQTTKELCEFYDNFEESYGNLVLEAKRRKD
chain 2: B1 chain 2
chain 3: B1 chain 3
notes: Atg31, S. cerevisiae BY4741; Atg29, S. cerevisiae BY4741; source: E. coli Rosetta, co-expressed from pST39, purified (Ni-NTA, SEC); not shown: His6, N-terminal, cleaved; copies: + +
B4: thioredoxin-tagged Atg17^235–417 (domain or fragment, S. cerevisiae, UniProt Q06410 235-417, looked up)
chain: DEREELFKVVQGDDKELYNIFKTLHEVIDDVDKTILNLGQFLQAKIKEKTELHSEVSEIINDFNRNLEYLLIFKDISNLIDSFKNSCTQDIQTTKELCEFYDNFEESYGNLVLEAKRRKDVANRMKTILKDCEKQLQNLDAQDQEERQNFIAENGTYLPETIWPGKIDDFSSLYTLNYNVKNP
notes: source: E. coli Rosetta, purified
B5: thioredoxin-tagged Atg17^235–354 (domain or fragment, S. cerevisiae, UniProt Q06410 235-354, looked up)
chain: DEREELFKVVQGDDKELYNIFKTLHEVIDDVDKTILNLGQFLQAKIKEKTELHSEVSEIINDFNRNLEYLLIFKDISNLIDSFKNSCTQDIQTTKELCEFYDNFEESYGNLVLEAKRRKD
notes: as for B4
B6: thioredoxin-tagged Atg17^354–417 (domain or fragment, S. cerevisiae, UniProt Q06410 354-417, looked up)
chain: DVANRMKTILKDCEKQLQNLDAQDQEERQNFIAENGTYLPETIWPGKIDDFSSLYTLNYNVKNP
notes: also called dimerization domain; source: E. coli Rosetta, purified
B7: Atg9^core (Atg9^281–779), reconstituted in proteoliposomes (domain or fragment, S. cerevisiae, UniProt Q12142 281-779, looked up)
chain: T1 sequence
notes: Atg9, S. cerevisiae BY4741, conserved core region, residues 281–779; modified pET28a(+) vector; about 50% of the protein in the proteoliposomes has its cytoplasmic domains outside; liposomes of cholesterol, POPE, POPC, POPS, without PI; also called Atg9–PLs; Atg9-PL; source: E. coli Rosetta, solubilised in LDAO, purified (Ni-NTA, SEC), reconstituted in liposomes; not shown: His tag, C-terminal, …

Data set [1] concerns the target pentameric Atg1–kinase complex (Atg1^PC) (S. cerevisiae) (UniProt P53104). Description: SEC-MALS; Atg1^PC injected at 3.4 mg ml^−1, 100 μl, Superose-6 10/300GL. A general note: SEC sorts molecules by how far they enter the pores of the column.
The target of data set [2] is T1, Atg9^core (Atg9^281–779), reconstituted in proteoliposomes (S. cerevisiae).
Data set [3] concerns the molecule itself. The data set can be described thus: dynamic light scattering; Stokes radii (RH) of the purified proteins and complexes in solution.
The target in the next data set is T2, Atg1–Atg13 subcomplex (S. cerevisiae, UniProt P53104 1-897; Q06628 1-738, phosphothreonine at 226 (T226)).
T2 construct: Atg1, S. cerevisiae BY4741; Atg13, S. cerevisiae BY4741; source: assembled from purified subunits (Atg1 from High Five cells, Atg13 from E. coli Rosetta), gel filtration on Superose 6
Description: SEC; complexes assembled from purified subunits or subcomplexes, 30 min at room temperature, then gel filtration on Superose 6. The settings on record: both partners purified.

The target in data set [4] is B7. The data set can be described thus: co-floatation with proteoliposomes; Atg9 variant held in proteoliposomes (synthetic lipids without PI), partner in solution at 1:1, Nycodenz step gradient, 650,000g 2 h at 4 °C, 25 mM HEPES pH 7.0, 100 mM NaCl; top fraction read by SDS–PAGE or α-myc immunoblot. The settings on record: both partners purified. (Immunoblotting shows a protein as a band on a membrane.)

Data set [5] deals with the molecule itself. Description: not stated; recombinantly expressed Atg17 fragment; how the dimer was shown is not told.
The target in data set [6] is T3, Atg1^PC with myc-tagged Atg17 (S. cerevisiae, UniProt P53104 1-897; Q06628 1-738; Q06410 1-417; Q12421 1-196; Q12092 1-213, phosphothreonine at 226 (T226)).
T3 construct: Atg1, S. cerevisiae BY4741; Atg13, S. cerevisiae BY4741; Atg17, S. cerevisiae BY4741; Atg31, S. cerevisiae BY4741; Atg29, S. cerevisiae BY4741; the form detected by α-myc immunoblot in the co-floatation experiments; also called Atg17^TC combined with Atg1–Atg13; source: purified Atg1–Atg13 combined with purified Atg17^TC; not shown: myc, C-terminal, kept; copies: 2 + 2 + 2 + 2 + 2
Description: co-floatation with proteoliposomes; Atg9 variant held in proteoliposomes (synthetic lipids without PI), partner in solution at 1:1, Nycodenz step gradient, 650,000g 2 h at 4 °C, 25 mM HEPES pH 7.0, 100 mM NaCl; top fraction read by SDS–PAGE or α-myc immunoblot. Particulars: both partners purified.

Data set [7] concerns the target T4, Atg17^TC (myc-tagged Atg17) with Atg13 alone (S. cerevisiae, UniProt Q06628 1-738; Q06410 1-417; Q12421 1-196; Q12092 1-213).
T4 construct: Atg13, S. cerevisiae BY4741; Atg17, S. cerevisiae BY4741; Atg31, S. cerevisiae BY4741; Atg29, S. cerevisiae BY4741; it was not isolated as such; also called Atg17^TC in the presence of Atg13; source: purified Atg13 combined with purified Atg17^TC; not shown: myc, C-terminal, kept; copies: + 2 + 2 + 2
Described as above. Particulars: both partners purified.

T2 sequence (P53104 whole entry, chain 1 of 2): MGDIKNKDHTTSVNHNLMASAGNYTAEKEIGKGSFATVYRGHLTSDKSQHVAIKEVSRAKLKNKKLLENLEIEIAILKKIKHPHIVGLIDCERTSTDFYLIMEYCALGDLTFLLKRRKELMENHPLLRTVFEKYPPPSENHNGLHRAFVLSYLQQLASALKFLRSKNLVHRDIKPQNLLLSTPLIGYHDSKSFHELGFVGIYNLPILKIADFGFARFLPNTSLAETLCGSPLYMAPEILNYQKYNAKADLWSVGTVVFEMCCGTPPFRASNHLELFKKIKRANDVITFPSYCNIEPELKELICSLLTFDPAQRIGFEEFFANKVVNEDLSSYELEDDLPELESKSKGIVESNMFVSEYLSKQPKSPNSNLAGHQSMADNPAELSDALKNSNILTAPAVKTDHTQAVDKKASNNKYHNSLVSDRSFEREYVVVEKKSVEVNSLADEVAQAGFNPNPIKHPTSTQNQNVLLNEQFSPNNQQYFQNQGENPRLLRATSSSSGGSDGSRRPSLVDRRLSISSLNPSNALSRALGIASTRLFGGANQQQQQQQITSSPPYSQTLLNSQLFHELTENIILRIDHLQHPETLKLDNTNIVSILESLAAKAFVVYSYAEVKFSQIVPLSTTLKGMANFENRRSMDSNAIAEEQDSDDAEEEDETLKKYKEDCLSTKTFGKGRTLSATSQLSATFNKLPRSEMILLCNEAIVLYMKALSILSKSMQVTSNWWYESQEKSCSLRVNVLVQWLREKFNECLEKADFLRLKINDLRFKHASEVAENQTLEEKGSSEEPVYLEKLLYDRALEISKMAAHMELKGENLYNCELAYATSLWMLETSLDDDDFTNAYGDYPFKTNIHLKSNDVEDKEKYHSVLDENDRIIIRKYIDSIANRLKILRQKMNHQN
T2 sequence (Q06628 whole entry, chain 2 of 2): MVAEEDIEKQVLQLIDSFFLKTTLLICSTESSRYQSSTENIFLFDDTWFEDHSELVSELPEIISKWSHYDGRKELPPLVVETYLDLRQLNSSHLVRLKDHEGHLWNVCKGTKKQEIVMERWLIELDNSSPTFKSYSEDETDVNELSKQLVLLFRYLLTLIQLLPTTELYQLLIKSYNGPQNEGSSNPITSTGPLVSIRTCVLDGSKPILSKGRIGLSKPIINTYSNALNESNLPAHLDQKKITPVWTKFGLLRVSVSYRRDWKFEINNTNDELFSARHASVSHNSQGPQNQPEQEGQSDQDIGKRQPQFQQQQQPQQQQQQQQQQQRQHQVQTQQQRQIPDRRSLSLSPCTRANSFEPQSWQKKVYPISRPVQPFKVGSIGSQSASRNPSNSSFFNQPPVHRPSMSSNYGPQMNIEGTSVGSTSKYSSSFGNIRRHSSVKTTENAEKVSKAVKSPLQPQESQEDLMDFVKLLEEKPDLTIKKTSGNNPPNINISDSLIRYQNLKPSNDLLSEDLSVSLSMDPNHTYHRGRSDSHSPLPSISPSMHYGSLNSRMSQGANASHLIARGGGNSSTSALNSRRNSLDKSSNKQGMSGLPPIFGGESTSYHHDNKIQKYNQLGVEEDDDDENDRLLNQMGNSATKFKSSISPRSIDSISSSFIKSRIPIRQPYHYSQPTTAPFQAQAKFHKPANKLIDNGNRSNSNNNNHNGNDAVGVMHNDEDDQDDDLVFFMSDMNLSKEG
T4 sequence (Q06628 whole entry, one chain of several): as the sequence (Q06628 whole entry, chain 2 of 2) above
T3 sequence (P53104 whole entry, chain 1 of 2): as the sequence (P53104 whole entry, chain 1 of 2) above
T3 sequence (Q06628 whole entry, chain 2 of 2): as the sequence (Q06628 whole entry, chain 2 of 2) above

“pentameric Atg1–kinase complex (Atg1^PC), P53104 1-897; Q06628 1-738; Q06410 1-417; Q12421 1-196; Q12092 1-213” yielded a stoichiometry N in data set [1] of 2.

Turning to B1, the RH of Atg9–PLs prepared in the presence of Atg17^TC, by DLS (vesicle tethering) in data set [2] was determined as 72 nm. In addition, the “stoichiometry N” value in data set [3] came to 2. The binding result in the data set with Atg1–Atg13 subcomplex is reported as “binds”.

In the case of B2, the binding result in data set [4] is recorded as “binds”.

For the molecule B3, in the data set with Atg1–Atg13 subcomplex, the binding result is listed as “binds”.

For the molecule B4, the “stoichiometry N” value in data set [5] worked out at 2. Besides, the binding result in data set [4] was “binds”.

Turning to B5, the binding result in data set [4] is recorded as “binds”.

B6: in data set [4], the binding result is reported as “binds”.

In the case of B7, the binding result in data set [6] and in data set [7] was “binds” in each case.
